Test results taken from article PMC8750329.

Tests used:
[1] = target: P. clarkii crustacyanin A2 (PcCRA2) (Procambarus clarkii); assay: SEC + other: SDS-PAGE; fraction F1, 1 mg/mL, TSK-gel G3000SWxl, 20 mM sodium phosphate pH 7.0, 0.7 mL/min, calibrated with a protein standard mix; native mass about 170 kDa against a single 21 kDa band on SDS-PAGE
[2] = target: P. clarkii crustacyanin A2 (PcCRA2) (Procambarus clarkii); assay: SEC + other: SDS-PAGE; fraction F2, 1 mg/mL, TSK-gel G3000SWxl, 20 mM sodium phosphate pH 7.0, 0.7 mL/min, calibrated with a protein standard mix; native mass about 43 kDa against a single 21 kDa band on SDS-PAGE

- stoichiometry N [1]: 8
- stoichiometry N [2]: 2
Substance: P. clarkii crustacyanin A2 (PcCRA2) (natural protein)
